Patent US20240100133A1, “ENZYMATICALLY INACTIVE GRANZYME A AND USES THEREFORE” (Saint Louis University, priority 2022, published 2024)

What was measured:
TLR4 = TLR4 (Homo sapiens, UniProt O00206); experiment: Immunoprecipitation with anti-GzmA, probed for TLR4; details: human monocyte lysates, infected and uninfected cells
[1] = system: human monocytes infected with BCG-GFP; experiment: Phagocytic score, BCG-GFP uptake by monocytes; details: 2 h of infection with BCG-GFP
Protocol: Monocytes were treated or not with GzmA, after which BCG-GFP was used to infect cells for 2 hours. Cells were then washed twice with FACS buffer and processed by flow cytometry. The phagocytic score was measured as previously described (Ackerman et al., 2011).

PDIA1 = PDIA1 (Homo sapiens, UniProt P07237); experiment: STED microscopy colocalization of GzmA with PDIA1; format: cell-based; design: endogenous in cells; host or cells: primary human monocytes infected with mycobacteria; details: STED images, infected and treated human monocytes
Chain of PDIA1 (P07237 18-508): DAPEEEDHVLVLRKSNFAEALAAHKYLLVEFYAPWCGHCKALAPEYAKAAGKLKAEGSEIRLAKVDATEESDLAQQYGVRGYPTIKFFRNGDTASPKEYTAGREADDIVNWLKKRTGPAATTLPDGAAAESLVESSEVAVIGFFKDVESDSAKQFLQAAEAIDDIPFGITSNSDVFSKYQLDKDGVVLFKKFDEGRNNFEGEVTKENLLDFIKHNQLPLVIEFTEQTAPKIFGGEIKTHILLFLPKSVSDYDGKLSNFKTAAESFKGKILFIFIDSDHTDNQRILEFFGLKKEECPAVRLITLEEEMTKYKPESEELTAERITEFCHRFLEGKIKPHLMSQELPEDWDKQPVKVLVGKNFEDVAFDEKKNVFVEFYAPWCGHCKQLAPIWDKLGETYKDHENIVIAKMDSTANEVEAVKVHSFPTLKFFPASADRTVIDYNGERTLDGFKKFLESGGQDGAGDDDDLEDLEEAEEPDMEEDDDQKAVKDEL
Protocol: (§1) Confocal microscopy and Stimulation Emission Depletion (STED) experiments. For confocal and STED microscopy experiments, cells were incubated on coverslips pre-treated with Cell-Tak (Corning #354240). At the time of fixation, cells were washed twice with 1×RT PBS, and then fixed in 4% paraformaldehyde for 15 min at 37° C. Slides were washed thrice for 5 min at RT with 1×PBS, and then blocked with 5% donkey serum (Cat. #017-000-121, Jackson ImmunoResearch, West Grove, PA) with 0.25% Tween-20 (Cat. #P9416, Sigma, St. Louis, MO) and True Stain Fc blocker (added only during blocking step) (Cat. #426101, Biolegend, San Diego, CA). Cells were then incubated overnight at 4° C. with primary antibody anti-GzmA (Cat. #MAB29051, R&D, Minneapolis, MN) at 12.5 μg/mL in blocking buffer, anti-PDIA1 (Cat. #MAB4236, R&D, Minneapolis, MN) at 12.5 μg/mL in blocking buffer, anti-LAMP1 at 12.5 ug/ml (Cat. #MAB4800, R&D, Minneapolis, MN), or anti-ATPSH (Cat. #ab110275, Abcam, Cambridge, UK) at 5 μg/mL in blocking buffer. To remove unbound antibody, cells were washed four times with 1×PBS at RT, and then incubated in the dark for 2 h with secondary antibody conjugated with Alexa Fluor 594 (Cat. #715-545-150, Jackson Immunoresearch, West Grove, PA) at 1:100 or Atto 647N (Cat. #ASR3248, Abcepta, San Diego, Ca) at 1:100. […]

[2] = system: LAMP1 (phagolysosome fusion); experiment: Confocal microscopy colocalization of BCG-GFP and LAMP1; format: cell-based, human; details: compared with untreated controls
Protocol: as §1

[3] = system: mycobacteria within iMac TLR4KO cells; experiment: MGIA in iMac TLR4KO cells; format: cell-based, mouse
[4] = system: BCG-GFP in human monocytes; experiment: BCG-GFP protection experiments and kinetics by flow cytometry
Protocol: Following treatment with GzmA and infection with mycobacteria, monocytes were first blocked with True Stain Fc blocker (Cat. #426101, Biolegend, San Diego, CA), and then permeabilized using permeabilization solution (Cat. #554715, BD Biosciences, San Diego, CA). Next, cells were incubated with anti-GzmA antibody conjugated with PE (Cat. #558904, BD Biosciences, San Diego, CA). A flow cytometer was then used to analyze BCG-GFP and GzmA-PE positive cells. FlowJo software was used for analysis.

[5] = system: mycobacteria within iMac-WT mouse cells; format: cell-based; details: human GzmA on mouse iMac-WT cells
mycobacteria BCG-GFP = format: binding

Chain of TLR4 (O00206 24-839): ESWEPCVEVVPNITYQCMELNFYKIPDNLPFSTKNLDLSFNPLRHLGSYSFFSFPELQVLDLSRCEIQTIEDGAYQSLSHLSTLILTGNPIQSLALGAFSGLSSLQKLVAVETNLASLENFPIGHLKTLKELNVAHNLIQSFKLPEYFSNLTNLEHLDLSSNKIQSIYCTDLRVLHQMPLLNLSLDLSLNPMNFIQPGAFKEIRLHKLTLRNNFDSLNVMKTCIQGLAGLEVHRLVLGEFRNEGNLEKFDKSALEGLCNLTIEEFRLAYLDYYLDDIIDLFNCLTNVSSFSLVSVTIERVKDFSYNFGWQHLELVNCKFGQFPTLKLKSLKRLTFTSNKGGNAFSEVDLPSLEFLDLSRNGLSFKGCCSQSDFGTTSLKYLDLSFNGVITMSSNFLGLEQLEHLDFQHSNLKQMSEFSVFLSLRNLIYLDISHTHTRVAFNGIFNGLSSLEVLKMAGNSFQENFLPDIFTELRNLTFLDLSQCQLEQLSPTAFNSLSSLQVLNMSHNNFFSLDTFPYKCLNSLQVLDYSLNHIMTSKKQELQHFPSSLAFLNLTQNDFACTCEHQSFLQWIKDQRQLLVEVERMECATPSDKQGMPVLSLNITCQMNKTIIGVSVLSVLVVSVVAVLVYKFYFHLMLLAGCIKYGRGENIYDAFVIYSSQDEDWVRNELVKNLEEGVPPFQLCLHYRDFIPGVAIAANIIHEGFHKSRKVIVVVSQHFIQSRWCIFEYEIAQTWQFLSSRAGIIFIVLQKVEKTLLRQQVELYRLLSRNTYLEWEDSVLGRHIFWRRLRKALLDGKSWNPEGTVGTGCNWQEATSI

B1: GzmA-WT: recombinant wild-type human Granzyme A, homodimeric serine protease, purified from HEK293T supernatants (protein)
chain: IIGGNEVTPHSRPYMVLLSLDRKTICAGALIAKDWVLTAAHCNLNKRSQVILGAHSITREEPTKQIMLVKKEFPYPCYDPATREGDLKLLQLMEKAKINKYVTILHLPKKGDDVKPGTMCQVAGWGRTHNSASWSDTLREVNITIIDRKVCNDRNHYNFNPVIGMNMVCAGSLRGGRDSCNGDSGSPLLCEGVFRGVTSFGLENKCGDPRGPGVYILLSKKHLNWIIMTIKGAV
modifications: left off: small tags and cut ends
notes: recombinant wild-type human Granzyme A, homodimeric serine protease, purified from HEK293T supernatants
binding to TLR4 (immunoprecipitation) (TLR4): bound to GzmA-WT | phagocytic score [1]: higher phagocytic score compared to untreated cells | degree of co-localization between GzmA and PDIA1 (PDIA1): 75% | colocalization between LAMP1 and BCG-GFP [2]: greater degree of colocalization | inhibition of intracellular mycobacterial growth in TLR4-deficient iMac cells [3]: incapable of inhibiting intracellular mycobacterial growth | uptake and persistence of bacteria in treated cells with detectable GzmA ([4]; GzmA detected in treated monocytes): least uptake and persistence of bacteria | mycobacterial growth in treated cells without sufficient internalization of protein (GzmA-) ([4]; GzmA- cells, over 18 h): reduced mycobacterial growth over time | reduction in mycobacterial growth AUC ([4]; cells treated and staining positive for GzmA, over 18 h): 78% | inhibition of mycobacterial growth in iMac-WT cells [5]: modestly inhibit mycobacterial growth | binding to mycobacteria (mycobacteria BCG-GFP): bound mycobacteria
